Among the data in the RNAGym collection of RNA variant scans (doi:10.7554/elife.80360) are self-cleavage values, retold here.

First the molecules themselves.
B1: HDV Ribozyme (parent)
chain: GGCCGGCAUGGUCCCAGCCUCCUCGCUGGCGCCGGCUGGGCAACAUUCCGAGGGGACCGUCCCCUCGGUAAUGGCGAAUGGGACCCA

The variants in this series derive from B1. Briefly: self-cleavage, relative activity (ratio to wild type); higher = more cleavage; co-transcriptional.
For the variant C7G G40U, the self-cleavage was determined as 0.268.
Next, G5U U12C: 0.0831; C15G G81U: 0.297.
C18A U27C: the self-cleavage was determined as 0.135.
On to G2C C58U, for which the self-cleavage was 0.0256.
For the variant G29C G55U, the self-cleavage was 0.0396.
With C57U C75A, the self-cleavage turned out to be 0.095.
Take U60C C62A: the self-cleavage turned out to be 1.01.
In the case of C30A G31A, the self-cleavage amounted to 0.0733.
With A45C G82A, the self-cleavage was 0.208.
For C57U G74U, the self-cleavage is 0.548.
In the case of G39A G80C, the self-cleavage amounted to 0.145.
On to C30A G81C, for which the self-cleavage came to 0.201.
For the variant C4A G59U, the self-cleavage came to 0.415.
Next, C19U U27A: 0.332; C3G C7U: 0.226.
With U20A U79C, the self-cleavage stood at 0.
As for G59C C63A, the self-cleavage was 1.17.
For C19U A71U, the self-cleavage was 0.13.
In the case of C19A G80C, the self-cleavage was 0.0665.
U9G C14G: the self-cleavage came to 1.2.
With G11A A87C, the self-cleavage amounted to 0.521.
As to G11C C22A, the self-cleavage worked out at 0.0898.
For the variant C32G G82C, the self-cleavage worked out at 0.0652.
In the case of C63G U65A, the self-cleavage came to 0.415.
As for A51C G59A, the self-cleavage amounted to 0.92.
For G31A C86U, the self-cleavage worked out at 0.69.
For the variant G53A U79A, the self-cleavage came to 0.814.
In the case of G39U G74C it was 0.23.
Turning to C48U C64U, the self-cleavage turned out to be 0.997.
For G2U C75U, the self-cleavage worked out at 0.021.
As for G2U G74U, the self-cleavage is 0.056.
As to U20A G29A, the self-cleavage turned out to be 0.0773.
In the case of U20A C64G it was 0.0639; in that of U9C G35U, 0.135.
In the case of A8G A87G it was 0.942; in that of G5A G53U, 0.309; in that of G17C A56U, 0.427.
C26U A45U: the self-cleavage turned out to be 0.77.
G25U C30G: the self-cleavage turned out to be 0.148.
For U9C G82C, the self-cleavage is 0.262.
In the case of U69G C75G it was 0.199; in that of G55C C58G, 1.11; in that of G68A C85G, 0.774.
Turning to A16G A43C, the self-cleavage was 0.277.
C3A G55C: the self-cleavage worked out at 0.642.
As for C58U C64U, the self-cleavage amounted to 0.987.
In the case of A43G U60C, the self-cleavage amounted to 0.415.
Regarding C19U C62G, the self-cleavage is 0.
On to G17A A83C, for which the self-cleavage is 0.665.
As to G34C A78U, the self-cleavage was found to be 0.0475.
In the case of G55C A83U, the self-cleavage is 0.575.
U20A U23A: the self-cleavage amounted to 0.277.
C22A A77G: the self-cleavage was 0.38.
In the case of G34C G76U it was 0.358; in that of C21A U72G, 0.166.
Next, G34U C84G: 0.161; C48A C63G: 0.73; G6A G81A: 0.282.
C7A C48G: the self-cleavage was found to be 0.462.
On to U9G U69G, for which the self-cleavage came out at 0.767.
As to G5C G50U, the self-cleavage turned out to be 0.0361.
Take C44U U65G: the self-cleavage is 0.812.
Regarding C32A C61A, the self-cleavage was 0.162.
For the variant U47C C63A, the self-cleavage stood at 0.739.
Take C18A G25C: the self-cleavage turned out to be 0.0405.
Take G17C C86G: the self-cleavage came out at 0.131.
In the case of U69A A78G, the self-cleavage is 0.959.
Regarding A71C U72G, the self-cleavage is 0.465.
Turning to C41G C58A, the self-cleavage worked out at 0.895.
C36U G38A: the self-cleavage was determined as 0.191.
C41G A83G: the self-cleavage came out at 0.759.
As to G1C C26U, the self-cleavage worked out at 0.0898.
Turning to C57U A71G, the self-cleavage came out at 1.12.
Turning to G54A C61A, the self-cleavage was determined as 1.07.
Take G2U G28A: the self-cleavage worked out at 0.0164.
As to G1U G6C, the self-cleavage turned out to be 0.656.
G1C G28U: the self-cleavage worked out at 0.107.
As to C33G U65C, the self-cleavage stood at 0.115.
Consider U12G A70U, for which the self-cleavage is 1.02.
Consider G25U C66G, for which the self-cleavage stood at 0.0354.
In the case of G76A, the self-cleavage worked out at 1.04.
In the case of G40U C64U it was 0.59; in that of C57U G76C, 0.902; in that of A51U G55C, 1.01.
On to A70U U72G, for which the self-cleavage stood at 0.554.
G6A U72G: the self-cleavage amounted to 0.246.
As to C30A C66A, the self-cleavage turned out to be 0.582.
As for G1C A77U, the self-cleavage is 0.
In the case of C22G C44A it was 0.0426.
Take G11A A77G: the self-cleavage came out at 0.208.
For C21G G67A, the self-cleavage was determined as 0.
For the variant C13G U69G, the self-cleavage came out at 0.111.
Turning to G6A A45U, the self-cleavage was 0.486.
Consider U27A C61G, for which the self-cleavage came to 0.504.
As for C15G A78U, the self-cleavage was 0.375.
In the case of C32A C86U, the self-cleavage was determined as 0.147.
As to G31A G59U, the self-cleavage was 0.383.
Next, G53A C66U: 1.05; G54C G74A: 0.314.
Next, G29A C49G: 0.225.
For the variant C24U A78U, the self-cleavage worked out at 0.172.
Next, U23C G67A: 0.927.
Regarding G31A G38U, the self-cleavage worked out at 0.0702.
C13A A42G: the self-cleavage turned out to be 0.142.
Take C33A G74U: the self-cleavage was 0.0755.
As for G29A G38A, the self-cleavage was 0.0623.
For C63U A78U, the self-cleavage is 0.287.
Consider A8U A71G, for which the self-cleavage turned out to be 0.917.
Turning to C48G A87C, the self-cleavage worked out at 1.08.
For the variant G50U U65G, the self-cleavage was 0.945.
On to C41G U65C, for which the self-cleavage came out at 0.745.
In the case of G25A C58A it was 0.237; in that of A42G A45C, 0.399; in that of U12G U65A, 1.06.
As to A8C A87G, the self-cleavage stood at 0.674.
In the case of A45U A71G, the self-cleavage was determined as 0.872.
As for C61U A83C, the self-cleavage stood at 0.378.
As to G29U U46G, the self-cleavage is 0.0386.
Take U9G U79A: the self-cleavage turned out to be 0.68.
In the case of C36A C48A it was 0.259.
G54A A87U: the self-cleavage was determined as 0.922.
Consider C21U C24A, for which the self-cleavage was 0.0997.
Take G1U G39A: the self-cleavage is 0.24.
Next, C3U A42G: 0.483; C13U U69C: 0.88; A16G C63G: 0.767.
Take G2C C57U: the self-cleavage was found to be 0.073.
Regarding C15U C19U, the self-cleavage worked out at 0.0767.
For the variant U47A G76U, the self-cleavage came out at 0.742.
In the case of G25C C26A, the self-cleavage was found to be 0.196.
Take G50U G68U: the self-cleavage was found to be 0.576.
For the variant C44A G59A, the self-cleavage worked out at 0.762.
For the variant C7A A77C, the self-cleavage stood at 0.115.
Turning to G11A G82U, the self-cleavage turned out to be 0.0744.
G29U A43U: the self-cleavage was 0.095.
Regarding G6U G67C, the self-cleavage is 0.73.
As for A8U G29C, the self-cleavage came out at 0.0554.
With C44G U69A, the self-cleavage came out at 0.657.
In the case of C33U A87G, the self-cleavage was found to be 0.79.
For G6A G59A, the self-cleavage came to 0.776.
As for G73C G80A, the self-cleavage is 0.284.
Consider C32U G74U, for which the self-cleavage amounted to 0.176.
Next, C7A G59U: 0.646; G11A C13G: 0.032; G11A C13U: 0.0297.
Next, U20C A42U: 0.0978.
U9C: the self-cleavage was found to be 1.04.
In the case of A42G C85G, the self-cleavage was 0.522.
With G25A G67C, the self-cleavage worked out at 0.277.
On to C26G G29C, for which the self-cleavage is 0.0504.
As to U12A C21A, the self-cleavage amounted to 0.0678.
For the variant A51C G80U, the self-cleavage is 0.199.
Next, G76U A87G: 1.13; G11U A51U: 0.506; C32U A87C: 0.795.
On to C4G U9A, for which the self-cleavage worked out at 0.534.
For the variant U46C A56C, the self-cleavage was determined as 0.609.
As for A16U C21U, the self-cleavage was determined as 0.122.
On to C26A G28A, for which the self-cleavage is 0.166.
Consider C49G G81A, for which the self-cleavage turned out to be 0.361.
Next, C44A A45C: 0.692; C30A C36U: 0.148.
Turning to C15U G31U, the self-cleavage came to 0.248.
Take G1U G38U: the self-cleavage turned out to be 0.295.
As for A51U A77G, the self-cleavage was determined as 0.615.
As to G50C G59A, the self-cleavage was determined as 0.992.
